Measurements as given in article PMC10457309.

Target: HH-120 (IgM-like hACE2-Fc fusion protein) (UniProt Q9BYF1)
Assay: SPR

## SARS-CoV-2 RBD (amino acids 316-512 of the S protein in the SARS-CoV-2 D614 strain) (from UniProt P0DTC2 316-512) (domain or fragment)
  Kd: 0.0264 µM
